From the Human Domainome abundance scans (Beltran et al. 2025)
± gives the uncertainty stated by the source.

B1: Arginine-glutamic acid dipeptide repeats protein, residues 502 to 543; numbered along this chain, Q9P2R6 (parent)
chain: LKGYACRHCFTTTSKDWHHGGRENILLCTDCRIHFKKYGELP

Variants of: B1
Assay: abundance fitness (aPCA) (normalised: wild type 0, dead -1); higher = more abundant; growth selection in yeast, the domain comes from the species named
Details: Homo sapiens

Variant	abundance fitness
LKGYACRHCFTTTSKDWHHGGRENILLPTDCRIHFKKYGELP [C28P]	-0.853 ± 0.26
LKGYACRHCFTTTSKDWHHGGRENILLQTDCRIHFKKYGELP [C28Q]	-0.746 ± 0.059
LKGYACRHCFTTTSKDWHHGGRENILLRTDCRIHFKKYGELP [C28R]	-0.921 ± 0.045
LKGYACRHCFTTTSKDWHHGGRENILLSTDCRIHFKKYGELP [C28S]	-0.789 ± 0.058
LKGYACRHCFTTTSKDWHHGGRENILLVTDCRIHFKKYGELP [C28V]	-0.851 ± 0.058
LKGYACRHCFTTTSKDWHHGGRENILLWTDCRIHFKKYGELP [C28W]	-1 ± 0.12
LKGYACRHCFTTTSKDWHHGGRENILLYTDCRIHFKKYGELP [C28Y]	-0.617 ± 0.13
LKGYACRHCFTTTSKDWHHGGRENILLCADCRIHFKKYGELP [T29A]	-0.067 ± 0.036
LKGYACRHCFTTTSKDWHHGGRENILLCCDCRIHFKKYGELP [T29C]	-0.096 ± 0.054
LKGYACRHCFTTTSKDWHHGGRENILLCDDCRIHFKKYGELP [T29D]	-0.151 ± 0.091
LKGYACRHCFTTTSKDWHHGGRENILLCEDCRIHFKKYGELP [T29E]	-0.105 ± 0.043
LKGYACRHCFTTTSKDWHHGGRENILLCGDCRIHFKKYGELP [T29G]	-0.13 ± 0.033
LKGYACRHCFTTTSKDWHHGGRENILLCHDCRIHFKKYGELP [T29H]	-0.474 ± 0.41
LKGYACRHCFTTTSKDWHHGGRENILLCIDCRIHFKKYGELP [T29I]	-0.094 ± 0.13
LKGYACRHCFTTTSKDWHHGGRENILLCKDCRIHFKKYGELP [T29K]	-0.145 ± 0.045
LKGYACRHCFTTTSKDWHHGGRENILLCLDCRIHFKKYGELP [T29L]	-0.089 ± 0.039
LKGYACRHCFTTTSKDWHHGGRENILLCMDCRIHFKKYGELP [T29M]	-0.192 ± 0.058
LKGYACRHCFTTTSKDWHHGGRENILLCNDCRIHFKKYGELP [T29N]	-0.07 ± 0.27
LKGYACRHCFTTTSKDWHHGGRENILLCPDCRIHFKKYGELP [T29P]	-0.347 ± 0.05
LKGYACRHCFTTTSKDWHHGGRENILLCQDCRIHFKKYGELP [T29Q]	-0.106 ± 0.042

Variant	abundance fitness
LKGYACRHCFTTTSKDWHHGGRENILLCRDCRIHFKKYGELP [T29R]	-0.125 ± 0.033
LKGYACRHCFTTTSKDWHHGGRENILLCVDCRIHFKKYGELP [T29V]	-0.154 ± 0.039
LKGYACRHCFTTTSKDWHHGGRENILLCWDCRIHFKKYGELP [T29W]	-0.042 ± 0.043
LKGYACRHCFTTTSKDWHHGGRENILLCYDCRIHFKKYGELP [T29Y]	0.02 ± 0.069
LKGYACRHCFTTTSKDWHHGGRENILLCTCCRIHFKKYGELP [D30C]	-0.248 ± 0.12
LKGYACRHCFTTTSKDWHHGGRENILLCTECRIHFKKYGELP [D30E]	-0.069 ± 0.042
LKGYACRHCFTTTSKDWHHGGRENILLCTGCRIHFKKYGELP [D30G]	-0.044 ± 0.034
LKGYACRHCFTTTSKDWHHGGRENILLCTICRIHFKKYGELP [D30I]	-0.404 ± 0.066
LKGYACRHCFTTTSKDWHHGGRENILLCTKCRIHFKKYGELP [D30K]	-0.098 ± 0.045
LKGYACRHCFTTTSKDWHHGGRENILLCTLCRIHFKKYGELP [D30L]	-0.29 ± 0.051
LKGYACRHCFTTTSKDWHHGGRENILLCTMCRIHFKKYGELP [D30M]	-0.157 ± 0.06
LKGYACRHCFTTTSKDWHHGGRENILLCTPCRIHFKKYGELP [D30P]	-0.058 ± 0.059
LKGYACRHCFTTTSKDWHHGGRENILLCTQCRIHFKKYGELP [D30Q]	-0.07 ± 0.043
LKGYACRHCFTTTSKDWHHGGRENILLCTSCRIHFKKYGELP [D30S]	-0.104 ± 0.046
LKGYACRHCFTTTSKDWHHGGRENILLCTTCRIHFKKYGELP [D30T]	0.068 ± 0.072
LKGYACRHCFTTTSKDWHHGGRENILLCTWCRIHFKKYGELP [D30W]	-0.352 ± 0.039
LKGYACRHCFTTTSKDWHHGGRENILLCTDARIHFKKYGELP [C31A]	-0.981 ± 0.057
LKGYACRHCFTTTSKDWHHGGRENILLCTDDRIHFKKYGELP [C31D]	-0.527 ± 0.21
LKGYACRHCFTTTSKDWHHGGRENILLCTDERIHFKKYGELP [C31E]	-0.742 ± 0.05
LKGYACRHCFTTTSKDWHHGGRENILLCTDHRIHFKKYGELP [C31H]	-0.733 ± 0.091

Variant	abundance fitness
LKGYACRHCFTTTSKDWHHGGRENILLCTDKRIHFKKYGELP [C31K]	-0.732 ± 0.092
LKGYACRHCFTTTSKDWHHGGRENILLCTDLRIHFKKYGELP [C31L]	-1.1 ± 0.075
LKGYACRHCFTTTSKDWHHGGRENILLCTDPRIHFKKYGELP [C31P]	-1.07 ± 0.15
LKGYACRHCFTTTSKDWHHGGRENILLCTDQRIHFKKYGELP [C31Q]	-1.14 ± 0.19
LKGYACRHCFTTTSKDWHHGGRENILLCTDRRIHFKKYGELP [C31R]	-1.16 ± 0.07
LKGYACRHCFTTTSKDWHHGGRENILLCTDVRIHFKKYGELP [C31V]	-1.08 ± 0.079
LKGYACRHCFTTTSKDWHHGGRENILLCTDWRIHFKKYGELP [C31W]	-1.33 ± 0.19
LKGYACRHCFTTTSKDWHHGGRENILLCTDYRIHFKKYGELP [C31Y]	-0.911 ± 0.13
LKGYACRHCFTTTSKDWHHGGRENILLCTDCAIHFKKYGELP [R32A]	-0.011 ± 0.038
LKGYACRHCFTTTSKDWHHGGRENILLCTDCCIHFKKYGELP [R32C]	-0.114 ± 0.04
LKGYACRHCFTTTSKDWHHGGRENILLCTDCDIHFKKYGELP [R32D]	-0.001 ± 0.045
LKGYACRHCFTTTSKDWHHGGRENILLCTDCEIHFKKYGELP [R32E]	-0.045 ± 0.042
LKGYACRHCFTTTSKDWHHGGRENILLCTDCFIHFKKYGELP [R32F]	0.021 ± 0.061
LKGYACRHCFTTTSKDWHHGGRENILLCTDCGIHFKKYGELP [R32G]	-0.029 ± 0.033
LKGYACRHCFTTTSKDWHHGGRENILLCTDCHIHFKKYGELP [R32H]	-0.037 ± 0.12
LKGYACRHCFTTTSKDWHHGGRENILLCTDCKIHFKKYGELP [R32K]	-0.137 ± 0.046
LKGYACRHCFTTTSKDWHHGGRENILLCTDCLIHFKKYGELP [R32L]	-0.058 ± 0.042
LKGYACRHCFTTTSKDWHHGGRENILLCTDCMIHFKKYGELP [R32M]	-0.017 ± 0.072
LKGYACRHCFTTTSKDWHHGGRENILLCTDCNIHFKKYGELP [R32N]	-0.063 ± 0.071
LKGYACRHCFTTTSKDWHHGGRENILLCTDCPIHFKKYGELP [R32P]	-0.612 ± 0.072
